# Results: PMC3069016 (Molecular Biology of the Cell, 2011)
# Target: T1, Csn10-CBP-A2 (S. cerevisiae, UniProt Q12348 1-645)
# T1 sequence (looked up): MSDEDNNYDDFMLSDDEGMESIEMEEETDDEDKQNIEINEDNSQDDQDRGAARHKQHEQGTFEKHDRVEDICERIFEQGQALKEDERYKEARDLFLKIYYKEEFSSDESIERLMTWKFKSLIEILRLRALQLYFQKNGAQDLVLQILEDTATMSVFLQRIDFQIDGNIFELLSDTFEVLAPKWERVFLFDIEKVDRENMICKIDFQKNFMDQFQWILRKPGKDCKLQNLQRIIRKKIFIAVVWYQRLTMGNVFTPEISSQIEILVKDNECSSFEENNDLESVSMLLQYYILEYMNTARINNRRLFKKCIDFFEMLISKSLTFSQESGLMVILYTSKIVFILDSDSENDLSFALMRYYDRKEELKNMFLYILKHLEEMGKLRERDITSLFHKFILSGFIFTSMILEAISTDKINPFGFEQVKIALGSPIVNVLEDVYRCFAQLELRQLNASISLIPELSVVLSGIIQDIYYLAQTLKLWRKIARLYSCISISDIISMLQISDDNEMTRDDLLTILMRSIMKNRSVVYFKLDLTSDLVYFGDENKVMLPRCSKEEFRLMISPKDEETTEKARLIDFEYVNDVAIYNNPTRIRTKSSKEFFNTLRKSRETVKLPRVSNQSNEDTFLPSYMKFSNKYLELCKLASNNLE
# Assay: affinity purification with mass spectrometry
binder,measurement,value
"Rpn5 (natural protein, S. cerevisiae, UniProt Q12250 1-445, looked up) MSRDAPIKADKDYSQILKEEFPKIDSLAQNDCNSALDQLLVLEKKTRQASDLASSKEVLAKIVDLLASRNKWDDLNEQLTLLSKKHGQLKLSIQYMIQKVMEYLKSSKSLDLNTRISVIETIRVVTENKIFVEVERARVTKDLVEIKKEEGKIDEAADILCELQVETYGSMEMSEKIQFILEQMELSILKGDYSQATVLSRKILKKTFKNPKYESLKLEYYNLLVKISLHKREYLEVAQYLQEIYQTDAIKSDEAKWKPVLSHIVYFLVLSPYGNLQNDLIHKIQNDNNLKKLESQESLVKLFTTNELMRWPIVQKTYEPVLNEDDLAFGGEANKHHWEDLQKRVIEHNLRVISEYYSRITLLRLNELLDLTESQTETYISDLVNQGIIYAKVNRPAKIVNFEKPKNSSQLLNEWSHNVDELLEHIETIGHLITKEEIMHGLQAK",stoichiometry N,1
